Where “and” joins values, the source holds several entries; their conditions need not be identical. Equal entries are not always repeated.
Columns and labels:
[1] = target: FLAG-tagged recombinant human IgM-Fc (human); experiment: negative-stain EM; purified IgM-Fc or IgM made with the J chain, about 15 μg/ml, 1% uranyl acetate; reference-free 2D class averages (RELION)
[2] = target: FLAG-tagged mouse IgM-Fc Cys414Ser variant (mouse); experiment: Western blotting after non-reducing SDS-PAGE; supernatant of HEK293T cells co-expressing FLAG-IgM-Fc and HA-J chain; anti-FLAG and anti-HA blots, reducing and nonreducing conditions
[3] = target: FLAG-tagged mouse IgM-Fc Cys414Ser variant (mouse); experiment: negative-stain EM; purified IgM-Fc or IgM made with the J chain, about 15 μg/ml, 1% uranyl acetate; reference-free 2D class averages (RELION)
[4] = target: the molecule itself; experiment: as above
[5] = target: the molecule itself; experiment: negative-stain EM; purified FLAG-tagged mouse IgM-Fc oligomers made in the absence of the J chain; reference-free 2D class averages
[6] = target: T1, Mouse IgM-Fc pentamer with HA-tagged J chain (mouse, UniProt P01872 1-454; P01592 22-159); experiment: co-IP; complex from co-culture supernatant purified on ANTI-FLAG M2 Affinity Gel, then on an anti-AIM antibody column; eluate blotted with anti-HA in a reducing condition, bands quantified with ImageJ; five experiments; conditions: partners not purified
T1 construct: Mouse immunoglobulin M heavy chain, Fc region: Cμ2-Cμ3-Cμ4 and the short tail; Mouse immunoglobulin J (joining) chain; as m2; also called Fc-pentamer/J-HA; IgM-Fc/J-HA; source: HEK293T transfected with pCAGGS-FLAG-mouse Fc and pCAGGS-mouse J chain-HA, co-cultured with cells expressing AIM-HA; not shown: FLAG, N-terminal, kept; copies: 10 + 1
T1 sequence (looked up) 1: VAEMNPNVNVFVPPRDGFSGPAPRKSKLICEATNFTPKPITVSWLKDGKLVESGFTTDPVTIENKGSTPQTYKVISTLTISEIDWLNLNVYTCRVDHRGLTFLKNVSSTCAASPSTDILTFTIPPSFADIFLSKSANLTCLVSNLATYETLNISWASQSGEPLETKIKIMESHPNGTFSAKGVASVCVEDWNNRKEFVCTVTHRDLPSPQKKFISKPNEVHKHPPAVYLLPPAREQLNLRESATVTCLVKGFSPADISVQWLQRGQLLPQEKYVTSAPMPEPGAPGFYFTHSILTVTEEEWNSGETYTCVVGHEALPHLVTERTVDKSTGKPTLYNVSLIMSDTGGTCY
T1 sequence (looked up) 2: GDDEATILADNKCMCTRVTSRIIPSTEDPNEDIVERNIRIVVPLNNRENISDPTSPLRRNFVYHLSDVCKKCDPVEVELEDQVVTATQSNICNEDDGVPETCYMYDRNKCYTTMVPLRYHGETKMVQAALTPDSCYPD

## FLAG-tagged recombinant human IgM-Fc (domain or fragment)
[1]
  stoichiometry N: 5

## FLAG-tagged mouse IgM-Fc Cys414Ser variant (domain or fragment)
[2]
  stoichiometry N: 4 and 5
[3]
  stoichiometry N: 4 and 5

B1: FLAG-tagged recombinant mouse IgM-Fc (Cμ2 to tail) (domain or fragment, UniProt P01872 1-454, looked up)
chain: VAEMNPNVNVFVPPRDGFSGPAPRKSKLICEATNFTPKPITVSWLKDGKLVESGFTTDPVTIENKGSTPQTYKVISTLTISEIDWLNLNVYTCRVDHRGLTFLKNVSSTCAASPSTDILTFTIPPSFADIFLSKSANLTCLVSNLATYETLNISWASQSGEPLETKIKIMESHPNGTFSAKGVASVCVEDWNNRKEFVCTVTHRDLPSPQKKFISKPNEVHKHPPAVYLLPPAREQLNLRESATVTCLVKGFSPADISVQWLQRGQLLPQEKYVTSAPMPEPGAPGFYFTHSILTVTEEEWNSGETYTCVVGHEALPHLVTERTVDKSTGKPTLYNVSLIMSDTGGTCY
notes: Mouse immunoglobulin M heavy chain, Fc region: Cμ2-Cμ3-Cμ4 and the short tail (19 amino acids); also called mouse Fc; Fc monomer; source: HEK293T, transfected (pCAGGS-FLAG-IgM-Fc, with or without the J chain plasmid), in culture supernatant; not shown: FLAG, N-terminal, kept
[4]
  stoichiometry N: 5
[5]
  stoichiometry N: 6

B2: HA-tagged mouse AIM (natural protein, UniProt Q9QWK4 22-352, looked up)
chain: ESPTKVQLVGGAHRCEGRVEVEHNGQWGTVCDDGWDRRDVAVVCRELNCGAVIQTPRGASYQPPASEQRVLIQGVDCNGTEDTLAQCELNYDVFDCSHEEDAGAQCENPDSDLLFIPEDVRLVDGPGHCQGRVEVLHQSQWSTVCKAGWNLQVSKVVCRQLGCGRALLTYGSCNKNTQGKGPIWMGKMSCSGQEANLRSCLLSRLENNCTHGEDTWMECEDPFELKLVGGDTPCSGRLEVLHKGSWGSVCDDNWGEKEDQVVCKQLGCGKSLHPSPKTRKIYGPGAGRIWLDDVNCSGKEQSLEFCRHRLWGYHDCTHKEDVEVICTDFDV
notes: Mouse AIM (CD5L), secreted; also called AIM-HA; source: HEK293T, transfected (pCAGGS-AIM-HA), co-cultured with cells expressing FLAG-mouse Fc and J chain-HA; culture supernatant, co-purified with the Fc pentamer
[6]
  ratio of HA signal, AIM-HA versus J-HA: 1.3 ± 0.12 J-HA signal per AIM-HA signal
  stoichiometry N: 1 AIM per pentamer
